Literature values, collected in PMC6586500.

Biological target: Histone H3K9me3 peptide (Homo sapiens) (UniProt P68431)

CBX5, sequence (P45973 whole entry): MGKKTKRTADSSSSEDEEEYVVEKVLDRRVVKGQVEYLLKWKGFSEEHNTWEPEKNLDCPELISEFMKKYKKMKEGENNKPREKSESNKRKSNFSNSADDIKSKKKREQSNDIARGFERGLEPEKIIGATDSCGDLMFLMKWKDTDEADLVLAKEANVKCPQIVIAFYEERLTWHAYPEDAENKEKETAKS

Which Kd does the source give for CBX5 (from UniProt P45973) here?
The Kd was 30 µM.
